B1: recombinant C4BP α-chain WT (natural protein, human, UniProt P04003 49-597, looked up)
chain: NCGPPPTLSFAAPMDITLTETRFKTGTTLKYTCLPGYVRSHSTQTLTCNSDGEWVYNTFCIYKRCRHPGELRNGQVEIKTDLSFGSQIEFSCSEGFFLIGSTTSRCEVQDRGVGWSHPLPQCEIVKCKPPPDIRNGRHSGEENFYAYGFSVTYSCDPRFSLLGHASISCTVENETIGVWRPSPPTCEKITCRKPDVSHGEMVSGFGPIYNYKDTIVFKCQKGFVLRGSSVIHCDADSKWNPSPPACEPNSCINLPDIPHASWETYPRPTKEDVYVVGTVLRYRCHPGYKPTTDEPTTVICQKNLRWTPYQGCEALCCPEPKLNNGEITQHRKSRPANHCVYFYGDEISFSCHETSRFSAICQGDGTWSPRTPSCGDICNFPPKIAHGHYKQSSSYSFFKEEIIYECDKGYILVGQAKLSCSYSHWSAPAPQCKALCRKPELVNGRLSVDKDQYVEPENVTIQCDSGYGVVGPQSITCSGNRTWYPEVPKCEWETPEGCEQVLTGKRLMQCLPNPEDVKMALEVYKLSLEIEQLELQRDSARQSTLDKEL
B2: recombinant C4BP α-chain I224T (natural protein, human, UniProt P04003 49-597, looked up)
chain: NCGPPPTLSFAAPMDITLTETRFKTGTTLKYTCLPGYVRSHSTQTLTCNSDGEWVYNTFCIYKRCRHPGELRNGQVEIKTDLSFGSQIEFSCSEGFFLIGSTTSRCEVQDRGVGWSHPLPQCEIVKCKPPPDIRNGRHSGEENFYAYGFSVTYSCDPRFSLLGHASISCTVENETTGVWRPSPPTCEKITCRKPDVSHGEMVSGFGPIYNYKDTIVFKCQKGFVLRGSSVIHCDADSKWNPSPPACEPNSCINLPDIPHASWETYPRPTKEDVYVVGTVLRYRCHPGYKPTTDEPTTVICQKNLRWTPYQGCEALCCPEPKLNNGEITQHRKSRPANHCVYFYGDEISFSCHETSRFSAICQGDGTWSPRTPSCGDICNFPPKIAHGHYKQSSSYSFFKEEIIYECDKGYILVGQAKLSCSYSHWSAPAPQCKALCRKPELVNGRLSVDKDQYVEPENVTIQCDSGYGVVGPQSITCSGNRTWYPEVPKCEWETPEGCEQVLTGKRLMQCLPNPEDVKMALEVYKLSLEIEQLELQRDSARQSTLDKEL
B3: recombinant C4BP α-chain I126T (natural protein, human, UniProt P04003 49-597, looked up)
chain: NCGPPPTLSFAAPMDITLTETRFKTGTTLKYTCLPGYVRSHSTQTLTCNSDGEWVYNTFCIYKRCRHPGELRNGQVETKTDLSFGSQIEFSCSEGFFLIGSTTSRCEVQDRGVGWSHPLPQCEIVKCKPPPDIRNGRHSGEENFYAYGFSVTYSCDPRFSLLGHASISCTVENETIGVWRPSPPTCEKITCRKPDVSHGEMVSGFGPIYNYKDTIVFKCQKGFVLRGSSVIHCDADSKWNPSPPACEPNSCINLPDIPHASWETYPRPTKEDVYVVGTVLRYRCHPGYKPTTDEPTTVICQKNLRWTPYQGCEALCCPEPKLNNGEITQHRKSRPANHCVYFYGDEISFSCHETSRFSAICQGDGTWSPRTPSCGDICNFPPKIAHGHYKQSSSYSFFKEEIIYECDKGYILVGQAKLSCSYSHWSAPAPQCKALCRKPELVNGRLSVDKDQYVEPENVTIQCDSGYGVVGPQSITCSGNRTWYPEVPKCEWETPEGCEQVLTGKRLMQCLPNPEDVKMALEVYKLSLEIEQLELQRDSARQSTLDKEL
B4: recombinant C4BP α-chain R120H (natural protein, human, UniProt P04003 49-597, looked up)
chain: NCGPPPTLSFAAPMDITLTETRFKTGTTLKYTCLPGYVRSHSTQTLTCNSDGEWVYNTFCIYKRCRHPGELHNGQVEIKTDLSFGSQIEFSCSEGFFLIGSTTSRCEVQDRGVGWSHPLPQCEIVKCKPPPDIRNGRHSGEENFYAYGFSVTYSCDPRFSLLGHASISCTVENETIGVWRPSPPTCEKITCRKPDVSHGEMVSGFGPIYNYKDTIVFKCQKGFVLRGSSVIHCDADSKWNPSPPACEPNSCINLPDIPHASWETYPRPTKEDVYVVGTVLRYRCHPGYKPTTDEPTTVICQKNLRWTPYQGCEALCCPEPKLNNGEITQHRKSRPANHCVYFYGDEISFSCHETSRFSAICQGDGTWSPRTPSCGDICNFPPKIAHGHYKQSSSYSFFKEEIIYECDKGYILVGQAKLSCSYSHWSAPAPQCKALCRKPELVNGRLSVDKDQYVEPENVTIQCDSGYGVVGPQSITCSGNRTWYPEVPKCEWETPEGCEQVLTGKRLMQCLPNPEDVKMALEVYKLSLEIEQLELQRDSARQSTLDKEL
B5: recombinant C4BP α-chain I300T (natural protein, human, UniProt P04003 49-597, looked up)
chain: NCGPPPTLSFAAPMDITLTETRFKTGTTLKYTCLPGYVRSHSTQTLTCNSDGEWVYNTFCIYKRCRHPGELRNGQVEIKTDLSFGSQIEFSCSEGFFLIGSTTSRCEVQDRGVGWSHPLPQCEIVKCKPPPDIRNGRHSGEENFYAYGFSVTYSCDPRFSLLGHASISCTVENETIGVWRPSPPTCEKITCRKPDVSHGEMVSGFGPIYNYKDTIVFKCQKGFVLRGSSVIHCDADSKWNPSPPACEPNSCTNLPDIPHASWETYPRPTKEDVYVVGTVLRYRCHPGYKPTTDEPTTVICQKNLRWTPYQGCEALCCPEPKLNNGEITQHRKSRPANHCVYFYGDEISFSCHETSRFSAICQGDGTWSPRTPSCGDICNFPPKIAHGHYKQSSSYSFFKEEIIYECDKGYILVGQAKLSCSYSHWSAPAPQCKALCRKPELVNGRLSVDKDQYVEPENVTIQCDSGYGVVGPQSITCSGNRTWYPEVPKCEWETPEGCEQVLTGKRLMQCLPNPEDVKMALEVYKLSLEIEQLELQRDSARQSTLDKEL
B6: recombinant C4BP α-chain D284E (natural protein, human, UniProt P04003 49-597, looked up)
chain: NCGPPPTLSFAAPMDITLTETRFKTGTTLKYTCLPGYVRSHSTQTLTCNSDGEWVYNTFCIYKRCRHPGELRNGQVEIKTDLSFGSQIEFSCSEGFFLIGSTTSRCEVQDRGVGWSHPLPQCEIVKCKPPPDIRNGRHSGEENFYAYGFSVTYSCDPRFSLLGHASISCTVENETIGVWRPSPPTCEKITCRKPDVSHGEMVSGFGPIYNYKDTIVFKCQKGFVLRGSSVIHCDAESKWNPSPPACEPNSCINLPDIPHASWETYPRPTKEDVYVVGTVLRYRCHPGYKPTTDEPTTVICQKNLRWTPYQGCEALCCPEPKLNNGEITQHRKSRPANHCVYFYGDEISFSCHETSRFSAICQGDGTWSPRTPSCGDICNFPPKIAHGHYKQSSSYSFFKEEIIYECDKGYILVGQAKLSCSYSHWSAPAPQCKALCRKPELVNGRLSVDKDQYVEPENVTIQCDSGYGVVGPQSITCSGNRTWYPEVPKCEWETPEGCEQVLTGKRLMQCLPNPEDVKMALEVYKLSLEIEQLELQRDSARQSTLDKEL
B7: recombinant C4BP α-chain G423E (natural protein, human, UniProt P04003 49-597, looked up)
chain: NCGPPPTLSFAAPMDITLTETRFKTGTTLKYTCLPGYVRSHSTQTLTCNSDGEWVYNTFCIYKRCRHPGELRNGQVEIKTDLSFGSQIEFSCSEGFFLIGSTTSRCEVQDRGVGWSHPLPQCEIVKCKPPPDIRNGRHSGEENFYAYGFSVTYSCDPRFSLLGHASISCTVENETIGVWRPSPPTCEKITCRKPDVSHGEMVSGFGPIYNYKDTIVFKCQKGFVLRGSSVIHCDADSKWNPSPPACEPNSCINLPDIPHASWETYPRPTKEDVYVVGTVLRYRCHPGYKPTTDEPTTVICQKNLRWTPYQGCEALCCPEPKLNNGEITQHRKSRPANHCVYFYGDEISFSCHETSRFSAICQGDGTWSPRTPSCEDICNFPPKIAHGHYKQSSSYSFFKEEIIYECDKGYILVGQAKLSCSYSHWSAPAPQCKALCRKPELVNGRLSVDKDQYVEPENVTIQCDSGYGVVGPQSITCSGNRTWYPEVPKCEWETPEGCEQVLTGKRLMQCLPNPEDVKMALEVYKLSLEIEQLELQRDSARQSTLDKEL

Target: the molecule itself
Assay: non-reducing SDS-PAGE

Stoichiometry N, 6:
B1
B2
B3
B4
B5
B6
B7

target: recombinant C4BP α-chain P4Q (human) (UniProt P04003); assay: non-reducing SDS-PAGE

Stoichiometry N, 6:
recombinant C4BP α-chain P4Q (from UniProt P04003 49-597) (natural protein)

Reference: publication PMC3760018 (European journal of immunology, 2013)
